Results taken from PMC11903679.

Key:
HLA-A*02:01/hβ2m (human) [1] = molecular target: HLA-A*02:01/hβ2m (human)
HLA-B*08:01/hβ2m (human) [2] = molecular target: HLA-B*08:01/hβ2m (human)
HLA-E*01:03/hβ2m (human) [3] = molecular target: HLA-E*01:03/hβ2m (human)
HLA-A*02:01/hβ2m (human) [4] = experiment: in vitro refolding + SEC
HLA-B*08:01/hβ2m (human) [5] = experiment: in vitro refolding + SEC
HLA-E*01:03/hβ2m (human) [6] = experiment: in vitro refolding + SEC
HLA-E*01:03/hβ2m (human) [7] = molecular target: HLA-E*01:03/hβ2m (human); remark: listed apart in the source

| Substance | nanoDSF melting temperature (Tm) of the refolded peptide/HLA/hβ2m complex (HLA-A*02:01/hβ2m (human) [1]) [°C] | nanoDSF melting temperature (Tm) of the refolded peptide/HLA/hβ2m complex (HLA-B*08:01/hβ2m (human) [2]) [°C] | nanoDSF melting temperature (Tm) of the refolded peptide/HLA/hβ2m complex (HLA-E*01:03/hβ2m (human) [3]) [°C] | apparent refolding yield (%) (HLA-A*02:01/hβ2m (human) [4]) | apparent refolding yield (%) (HLA-B*08:01/hβ2m (human) [5]) | apparent refolding yield (%) (HLA-E*01:03/hβ2m (human) [6]) | nanoDSF melting temperature of a minor population of the refolded complex (HLA-E*01:03/hβ2m (human) [7]) [°C] |
| --- | --- | --- | --- | --- | --- | --- | --- |
| LSA3 1229–1238 (…) (peptide) | 58.4 | 60.5 | 61 | 24.6 | 47.6 | 38.1 |  |
| MSP1 643–652 (…) (peptide) |  | 52.9 | 38.4 |  | 32.6 | 8 | 63 |
| SSFP 93–102 (…) (peptide) | 52.5 | 56.3 |  | 27.1 | 51.1 |  |  |
| LSA3 78–87 (…) (peptide) | 52.5 | 56.3 |  | 13.5 | 14.7 |  |  |
| MSP1 511–520 (…) (peptide) | 51.6 |  |  | 19 | 44.4 |  |  |
| MSP1 880–889 (…) (peptide) | 53.6 | 51.6 |  |  | 63.3 |  |  |
| MSP1 823–832 (…) (peptide) | 63.2 | 52.6 |  |  | 12.5 |  |  |
